Earlier results in PMC4271544.

Biological target: Capping protein (CP) (Homo sapiens) (UniProt P52907)

- Kd: 40 nM
Substance: V-1 (myotrophin) (from UniProt P58546)
